Common to all, as to settings: percent of positive control peptide binding; peptide at 1.11×10^−5M
The target in assay [1] is MHC class I allele A*0101 (A1) (Homo sapiens, UniProt P04439, A114D/A174V/A182V/D101N/D185E/E176A/E190D/L180R/Q94H/R68K/S129P/T187R/V100A/V91M/W191G). Briefly: iTopia peptide binding assay, A*0101. The protocol: (§1) The 9 mers were tested for Peptide Binding, Off Rate and Affinity using iTopia Epitope Discovery System in accordance with the manufacturer's instructions. Briefly, 96 well microtitre plates coated with MHC molecules representing different MHC alleles are used to identify candidate peptides. […] Determinations are performed in duplicate using an ELISA plate reader and included allele specific positive controls.
(§2) i) Peptide Binding—This assay measures the ability of individual peptides to bind to the MHC molecules under standardized optimal binding conditions. The assay is performed for all the test peptides across the selected MHC alleles. The test peptides identified as “binders” are characterized further in terms of affinity and dissociation experiments.
(§3) Following a period of binding under optimal conditions, excess antibody is removed and a measurement of total fluorescence taken (D).
(§4) The binding of the test peptides to the MHC molecules was performed at 1.11×10^−5M of peptide under optimal, standardised test conditions. A control peptide was run in parallel on the same plate and at the same concentration as the test peptides.
(§5) The level of binding is expressed as a percent of positive control peptide binding for each allele.

For assay [2], the target named is MHC class I allele A*0201 (A2) (Homo sapiens, UniProt P04439, D140Y/D185E/D98H/E176V/E277Q/G131W/G231S/I119V/I121R/I166T/I218V/L300P/L318F/N151K/N90K/P208A/P217A/Q86G/Q94H/R138H/R169H/T345S). Kind of assay: iTopia peptide binding assay, A*0201. The protocol:
as §1, §2, §3, §4, §5

Assay [3] has as its target MHC class I allele A*0301 (A3) (Homo sapiens, UniProt P04439). Briefly: iTopia peptide binding assay, A*0301. The protocol:
as §1, §2, §3, §4, §5

The target of assay [4] is MHC class I allele B*0702 (B7) (Homo sapiens, UniProt P01889). Kind of assay: iTopia peptide binding assay, B*0702. The protocol:
as §1, §2, §3, §4, §5

In the case of PDQCPALCE [Peptide 30], the “Peptide binding, MHC Class I Molecule A*0101” value in assay [1] is 5 % of control. Further, the “Peptide binding, MHC Class I Molecule A*0201” value in assay [2] is reported as 3 % of control. Further, the “Peptide binding, MHC Class I Molecule A*0301” value in assay [3] is on record as 0 % of control. The “Peptide binding, MHC Class I Molecule B*0702” value in assay [4] is 1 % of control.

Regarding VQGKDRLTC [Peptide 158], in assay [1], the “Peptide binding, MHC Class I Molecule A*0101” value is listed as 0 % of control. Moreover, the “Peptide binding, MHC Class I Molecule A*0201” value in assay [2] is given as 4 % of control. In addition, the “Peptide binding, MHC Class I Molecule A*0301” value in assay [3] was 6 % of control. In addition, the “Peptide binding, MHC Class I Molecule B*0702” value in assay [4] was 6 % of control.

Consider AALLAGRAL [Peptide 101], for which the “Peptide binding, MHC Class I Molecule A*0101” value in assay [1] is listed as 1 % of control. In addition, in assay [2], the “Peptide binding, MHC Class I Molecule A*0201” value is given as 38 % of control. In assay [3], the “Peptide binding, MHC Class I Molecule A*0301” value is given as 0 % of control. The “Peptide binding, MHC Class I Molecule B*0702” value in assay [4] is 59 % of control.

As to LNSADLDCD [Peptide 169], the “Peptide binding, MHC Class I Molecule A*0101” value in assay [1] was 0 % of control. Besides, the “Peptide binding, MHC Class I Molecule A*0201” value in assay [2] is recorded as 0 % of control. Besides, the “Peptide binding, MHC Class I Molecule A*0301” value in assay [3] is reported as 3 % of control. Further, the “Peptide binding, MHC Class I Molecule B*0702” value in assay [4] is recorded as 0 % of control.

With ESLHLEDNA [Peptide 131], the “Peptide binding, MHC Class I Molecule A*0101” value in assay [1] is listed as 2 % of control. Also, in assay [2], the “Peptide binding, MHC Class I Molecule A*0201” value was 8 % of control. In addition, in assay [3], the “Peptide binding, MHC Class I Molecule A*0301” value is on record as 0 % of control. Also, the “Peptide binding, MHC Class I Molecule B*0702” value in assay [4] is reported as 0 % of control.

Regarding ERQNRSFEG [Peptide 95], the “Peptide binding, MHC Class I Molecule A*0101” value in assay [1] is 0 % of control. Further, the “Peptide binding, MHC Class I Molecule A*0201” value in assay [2] is 1 % of control. Moreover, in assay [3], the “Peptide binding, MHC Class I Molecule A*0301” value is recorded as 1 % of control. The “Peptide binding, MHC Class I Molecule B*0702” value in assay [4] is given as 1 % of control.

On to DNALKVLHN [Peptide 134], for which the “Peptide binding, MHC Class I Molecule A*0101” value in assay [1] is on record as 1 % of control. The “Peptide binding, MHC Class I Molecule A*0201” value in assay [2] is 5 % of control. Further, the “Peptide binding, MHC Class I Molecule A*0301” value in assay [3] is on record as 0 % of control. Besides, the “Peptide binding, MHC Class I Molecule B*0702” value in assay [4] is 0 % of control.

With PALCECSEA [Peptide 32], the “Peptide binding, MHC Class I Molecule A*0101” value in assay [1] is on record as 4 % of control. Moreover, the “Peptide binding, MHC Class I Molecule A*0201” value in assay [2] is given as 19 % of control. In assay [3], the “Peptide binding, MHC Class I Molecule A*0301” value was 0 % of control. For the same sequence, the “Peptide binding, MHC Class I Molecule B*0702” value in assay [4] is reported as 0 % of control.

In the case of AGRALQGLR [Peptide 103], the “Peptide binding, MHC Class I Molecule A*0101” value in assay [1] is 0 % of control. Besides, the “Peptide binding, MHC Class I Molecule A*0201” value in assay [2] is on record as 2 % of control. Further, the “Peptide binding, MHC Class I Molecule A*0301” value in assay [3] was 2 % of control. For the same sequence, the “Peptide binding, MHC Class I Molecule B*0702” value in assay [4] is 1 % of control.

Consider ACRDHMEGY [Peptide 196], for which the “Peptide binding, MHC Class I Molecule A*0101” value in assay [1] was 3 % of control. Further, the “Peptide binding, MHC Class I Molecule A*0201” value in assay [2] is recorded as 8 % of control. Further, in assay [3], the “Peptide binding, MHC Class I Molecule A*0301” value was 4 % of control. In assay [4], the “Peptide binding, MHC Class I Molecule B*0702” value is listed as 7 % of control.

As for LPSLRQLDL [Peptide 71], in assay [1], the “Peptide binding, MHC Class I Molecule A*0101” value is listed as 0 % of control. The “Peptide binding, MHC Class I Molecule A*0201” value in assay [2] was 27 % of control. For the same sequence, the “Peptide binding, MHC Class I Molecule A*0301” value in assay [3] is reported as 0 % of control. For the same sequence, the “Peptide binding, MHC Class I Molecule B*0702” value in assay [4] is recorded as 82 % of control.

For YRYEINADP [Peptide 201], the “Peptide binding, MHC Class I Molecule A*0101” value in assay [1] is recorded as 0 % of control. Besides, in assay [2], the “Peptide binding, MHC Class I Molecule A*0201” value was 0 % of control. Besides, the “Peptide binding, MHC Class I Molecule A*0301” value in assay [3] is recorded as 1 % of control. Further, the “Peptide binding, MHC Class I Molecule B*0702” value in assay [4] is listed as 3 % of control.

For the sequence ECSEAARTV [Peptide 34], in assay [1], the “Peptide binding, MHC Class I Molecule A*0101” value is given as 2 % of control. For the same sequence, the “Peptide binding, MHC Class I Molecule A*0201” value in assay [2] was 4 % of control. Further, the “Peptide binding, MHC Class I Molecule A*0301” value in assay [3] is listed as 0 % of control. In assay [4], the “Peptide binding, MHC Class I Molecule B*0702” value is 0 % of control.

In the case of LGIVLALIG [Peptide 180], the “Peptide binding, MHC Class I Molecule A*0101” value in assay [1] is given as 0 % of control. The “Peptide binding, MHC Class I Molecule A*0201” value in assay [2] is given as 10 % of control. In addition, the “Peptide binding, MHC Class I Molecule A*0301” value in assay [3] is recorded as 1 % of control. In addition, the “Peptide binding, MHC Class I Molecule B*0702” value in assay [4] is given as 0 % of control.

For the sequence EGYHYRYEI [Peptide 199], the “Peptide binding, MHC Class I Molecule A*0101” value in assay [1] was 0 % of control. In assay [2], the “Peptide binding, MHC Class I Molecule A*0201” value is given as 9 % of control. In assay [3], the “Peptide binding, MHC Class I Molecule A*0301” value is 0 % of control. Moreover, the “Peptide binding, MHC Class I Molecule B*0702” value in assay [4] was 4 % of control.

For SSSPTSSAS [Peptide 16], the “Peptide binding, MHC Class I Molecule A*0101” value in assay [1] is reported as 4 % of control. In assay [2], the “Peptide binding, MHC Class I Molecule A*0201” value was 7 % of control. For the same sequence, the “Peptide binding, MHC Class I Molecule A*0301” value in assay [3] is 2 % of control. For the same sequence, in assay [4], the “Peptide binding, MHC Class I Molecule B*0702” value is on record as 8 % of control.

On to TEVPTDLPA [Peptide 42], for which the “Peptide binding, MHC Class I Molecule A*0101” value in assay [1] was 3 % of control. Further, in assay [2], the “Peptide binding, MHC Class I Molecule A*0201” value is 7 % of control. For the same sequence, in assay [3], the “Peptide binding, MHC Class I Molecule A*0301” value is listed as 0 % of control. In addition, the “Peptide binding, MHC Class I Molecule B*0702” value in assay [4] is recorded as 0 % of control.

With VRNLFLTGN [Peptide 47], the “Peptide binding, MHC Class I Molecule A*0101” value in assay [1] is listed as 0 % of control. For the same sequence, the “Peptide binding, MHC Class I Molecule A*0201” value in assay [2] is on record as 5 % of control. Besides, the “Peptide binding, MHC Class I Molecule A*0301” value in assay [3] is reported as 0 % of control. Also, in assay [4], the “Peptide binding, MHC Class I Molecule B*0702” value is 3 % of control.

For RRPPLAELA [Peptide 57], the “Peptide binding, MHC Class I Molecule A*0101” value in assay [1] is recorded as 2 % of control. In addition, the “Peptide binding, MHC Class I Molecule A*0201” value in assay [2] is reported as 11 % of control. Moreover, in assay [3], the “Peptide binding, MHC Class I Molecule A*0301” value was 2 % of control. Besides, the “Peptide binding, MHC Class I Molecule B*0702” value in assay [4] is on record as 9 % of control.

For AFEHLPSLR [Peptide 69], the “Peptide binding, MHC Class I Molecule A*0101” value in assay [1] is reported as 1 % of control. Further, the “Peptide binding, MHC Class I Molecule A*0201” value in assay [2] is given as 11 % of control. The “Peptide binding, MHC Class I Molecule A*0301” value in assay [3] is listed as 11 % of control. Further, in assay [4], the “Peptide binding, MHC Class I Molecule B*0702” value is reported as 0 % of control.

As to LKETEVVQG [Peptide 155], the “Peptide binding, MHC Class I Molecule A*0101” value in assay [1] is reported as 0 % of control. For the same sequence, the “Peptide binding, MHC Class I Molecule A*0201” value in assay [2] was 3 % of control. In assay [3], the “Peptide binding, MHC Class I Molecule A*0301” value is listed as 4 % of control. Also, the “Peptide binding, MHC Class I Molecule B*0702” value in assay [4] is given as 3 % of control.

In the case of IRVFLDNNP [Peptide 144], in assay [1], the “Peptide binding, MHC Class I Molecule A*0101” value is reported as 0 % of control. Besides, the “Peptide binding, MHC Class I Molecule A*0201” value in assay [2] is 4 % of control. Moreover, in assay [3], the “Peptide binding, MHC Class I Molecule A*0301” value is recorded as 3 % of control. The “Peptide binding, MHC Class I Molecule B*0702” value in assay [4] is on record as 5 % of control.

Turning to NGTLAELQG [Peptide 138], in assay [1], the “Peptide binding, MHC Class I Molecule A*0101” value was 3 % of control. For the same sequence, in assay [2], the “Peptide binding, MHC Class I Molecule A*0201” value is recorded as 9 % of control. Further, the “Peptide binding, MHC Class I Molecule A*0301” value in assay [3] was 3 % of control. Also, the “Peptide binding, MHC Class I Molecule B*0702” value in assay [4] is 0 % of control.

For VSAPSPLVE [Peptide 85], in assay [1], the “Peptide binding, MHC Class I Molecule A*0101” value was 3 % of control. Moreover, the “Peptide binding, MHC Class I Molecule A*0201” value in assay [2] was 13 % of control. For the same sequence, in assay [3], the “Peptide binding, MHC Class I Molecule A*0301” value is recorded as 7 % of control. In assay [4], the “Peptide binding, MHC Class I Molecule B*0702” value was 3 % of control.
